Measured values reported in PMC4549621, “Molecular basis for mid-region amyloid-β capture by leading Alzheimer's disease immunotherapies” (Scientific Reports, 2015).

Target: T1, amyloid-β peptide residues 12–28 (Aβ12–28), wild type
T1 construct: cut product of the amyloid precursor protein; numbers count on: the Aβ peptide (Asp1 of Aβ); also called Aβ peptide; mid-region of the Aβ peptide; source: bought: Anaspec (95% purity)
T1 chain: VHHQKLVFFAEDVGSNK
Experiment: crystal structure; Fab:Aβ12–28 mixed at molar ratio 1:2, dialysed in 10 mM HEPES pH 7.5; crystals from 16% w/v PEG 3350, 50 mM sodium citrate pH 4, 295 K; 2.4 Å, two complexes in the asymmetric unit
Conditions: both partners purified

binding result: binds
B1: solanezumab Fab fragment (recombinant, Asn55(H2)Ser) (Fab, V domains shown)
VH: EVQLVESGGGLVQPGGSLRLSCAASGFTFSRYSMSWVRQAPGKGLELVAQINSVGSSTYYPDTVKGRFTISRDNAKNTLYLQMNSLRAEDTAVYYCASGDYWGQGTLVTVSS
VL: DVVMTQSPLSLPVTLGQPASISCRSSQSLIYSDGNAYLHWFLQKPGQSPRLLIYKVSNRFSGVPDRFSGSGSGTDFTLKISRVEAEDVGVYYCSQSTHVPWTFGQGTKVEIK
notes: Fab heavy chain of solanezumab; glycosylation site removed by Asn55(H2)Ser; Fab light chain of solanezumab; Parent antibody is IgG1; only the Fab portion was made; source: FreeStyle 293-F cells, co-transfected, purified from supernatant (Ni-NTA, SEC)
